Values quoted from earlier work as cited in article PMC3273586 (International Journal of Pharmaceutics, 2011).

Conditions: solution stored for 20 h at room temperature; ref Dijkhuizen-Radersma et al., 2002

Substance: calcitonin
- aggregation of solution on storage: early onset of aggregation
